For 20 molecules, Kd results are on record in patent US20200239543A1 (ALX ONCOLOGY, published 2020).

The target of experiment [1] is T1, human CD47 (human, UniProt Q08722 19-139).
T1 construct: extracellular domain; also called CD47 ECD
Put plainly: SPR, 25 C, 1:1 Langmuir fit. (In general: In SPR one partner is held on a chip, and binding of the other changes the refractive index at the surface.)

Experiment [2] deals with T1, human CD47. Put plainly: SPR as in Example 1.

T1 sequence (Q08722 19-139 limits assumed): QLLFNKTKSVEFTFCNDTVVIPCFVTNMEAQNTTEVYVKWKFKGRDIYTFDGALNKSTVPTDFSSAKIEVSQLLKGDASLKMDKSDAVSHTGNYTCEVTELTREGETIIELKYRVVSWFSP

B1: SIRP-α D1 variant polypeptide of SEQ ID NO: 78 (receptor)
chain: EEELQIIQPDKSVLVAAGETATLRCTITSLFPVGPIQWFRGAGPGRVLIYNQRQGPFPRVTTVSDTTKRNNMDFSIRIGAITPADAGTYYCIKFRKGSPDDVEFKSGAGTELSVRAKPS
notes: engineered SIRP-α D1 domain
The term Kd denotes the equilibrium constant for the complex coming apart. B1 returned a Kd in experiment [1] of 0.0144 nM.

B2: SIRP-α D1 variant polypeptide of SEQ ID NO: 80 (receptor)
chain: EEELQIIQPDKSVLVAAGETATLRCTITSLFPVGPIQWFRGAGPGRVLIYNQREGPFPRVTTVSDTTKRNNMDFSIRIGAITPADAGTYYCIKFRKGSPDDVEFKSGAGTELSVRAKPS
notes: engineered SIRP-α D1 domain
As for B2, in experiment [1], binding was characterised by a dissociation constant (Kd) of 0.0472 nM.

B3: SIRP-α D1 variant polypeptide of SEQ ID NO: 79 (receptor)
chain: EEELQVIQPDKSVLVAAGETATLRCTATSLFPVGPIQWFRGAGPGRELIYNQRQGPFPRVTTVSDLTKRNNMDFSIRIGAITPADAGTYYCVKFRKGSPDDVEFKSGAGTELSVRAKPS
notes: engineered SIRP-α D1 domain
As to B3, the Kd in experiment [1] was determined as 0.217 nM.

B4: SIRP-α D1 variant fused to Fc variant, SEQ ID NO: 114 (Fc fusion)
chain: EEELQIIQPDKSVLVAAGETATLRCTITSLFPVGPIQWFRGAGPGRVLIYNQRQGPFPRVTTVSDTTKRNNMDFSIRIGNITPADAGTYYCIKFRKGSPDDVEFKSGAGTELSVRAKPSERKSSVECPPCPAPPVAGPSVFLFPPKPKDTLMISRTPEVTCVVVDVSHEDPEVQFNWYVDGVEVHNAKTKPREEQFASTFRVVSVLTVVHQDWLNGKEYKCKVSNKGLPSSIEKTISKTKGQPREPQVYTLPPSREEMTKNQVSLTCLVKGFYPSDIAVEWESNGQPENNYKTTPPMLDSDGSFFLYSKLTVDKSRWQQGNVFSCSVMHEALHNHYTQKSLSLSPGK
Regarding B4, binding in experiment [2] was put at a Kd of 0.0343 nM.

B5: SIRP-α D1 variant fused to Fc variant, SEQ ID NO: 115 (Fc fusion)
chain: EEELQVIQPDKSVLVAAGETATLRCTATSLFPVGPIQWFRGAGPGRELIYNQRQGPFPRVTTVSDLTKRNNMDFSIRIGNITPADAGTYYCVKFRKGSPDDVEFKSGAGTELSVRAKPSERKSSVECPPCPAPPVAGPSVFLFPPKPKDTLMISRTPEVTCVVVDVSHEDPEVQFNWYVDGVEVHNAKTKPREEQFASTFRVVSVLTVVHQDWLNGKEYKCKVSNKGLPSSIEKTISKTKGQPREPQVYTLPPSREEMTKNQVSLTCLVKGFYPSDIAVEWESNGQPENNYKTTPPMLDSDGSFFLYSKLTVDKSRWQQGNVFSCSVMHEALHNHYTQKSLSLSPGK
In experiment [2], B5 came in with a Kd of 0.498 nM.

B6: SIRP-α D1 variant fused to Fc variant, SEQ ID NO: 135 (Fc fusion)
chain: EEELQVIQPDKSVLVAAGETATLRCTATSLFPVGPIQWFRGAGPGRELIYNQREGPFPRVTTVSDLTKRNNMDFSIRIGAITPADAGTYYCVKFRKGSPDDVEFKSGAGTELSVRAKPSDKTHTCPPCPAPEAAGAPSVFLFPPKPKDTLMISRTPEVTCVVVDVSHEDPEVKFNWYVDGVEVHNAKTKPREEQYASTYRVVSVLTVLHQDWLNGKEYKCKVSNKALPAPIEKTISKAKGQPREPQVYTLPPSREEMTKNQVSLTCLVKGFYPSDIAVEWESNGQPENNYKTTPPVLDSDGSFFLYSKLTVDKSRWQQGNVFSCSVMHEALHNHYTQKSLSLSPG
Consider B6, for which the Kd in experiment [2] amounted to 3.46 nM.

B7: SIRP-α D1 variant polypeptide of SEQ ID NO: 64 (receptor)
chain: EEELQVIQPDKSVSVAAGESAILHCTVTSLIPVGPIQWFRGAGPARELIYNQREGPFPRVTTVSESTKRENMDFSISISNITPADAGTYYCVKFRKGSPDTEFKSGAGTELSVRAKPS
notes: engineered SIRP-α D1 domain
In experiment [1], B7 gave a Kd of 5.45 nM.

B8: SIRP-α D1 variant polypeptide of SEQ ID NO: 68 (receptor)
chain: EEELQIIQPDKSVSVAAGESAILHCTITSLFPVGPIQWFRGAGPARELIYNQREGPFPRVTTVSESTKRENMDFSISISNITPADAGTYYCVKFRKGSPDTEFKSGAGTELSVRAKPS
notes: engineered SIRP-α D1 domain
In the case of B8, in experiment [1], the Kd amounted to 0.251 nM.

B9: SIRP-α D1 variant polypeptide of SEQ ID NO: 65 (receptor)
chain: EEELQVIQPDKSVSVAAGESAILHCTVTSLFPVGPIQWFRGAGPARELIYNQREGPFPRVTTVSESTKRENMDFSISISNITPADAGTYYCVKFRKGSPDTEFKSGAGTELSVRAKPS
notes: engineered SIRP-α D1 domain
The molecule B9 registered a Kd in experiment [1] of 0.8 nM.

B10: SIRP-α D1 variant polypeptide of SEQ ID NO: 66 (receptor)
chain: EEELQVIQPDKSVSVAAGESAILHCTITSLFPVGPIQWFRGAGPARELIYNQREGPFPRVTTVSESTKRENMDFSISISNITPADAGTYYCVKFRKGSPDTEFKSGAGTELSVRAKPS
notes: engineered SIRP-α D1 domain
Take B10: the affinity in experiment [1], expressed as Kd, was 0.47 nM.

B11: SIRP-α D1 variant polypeptide of SEQ ID NO: 69 (receptor)
chain: EEELQVIQPDKSVSVAAGESAILHCTITSLIPVGPIQWFRGAGPARELIYNQREGPFPRVTTVSESTKRENMDFSISISNITPADAGTYYCVKFRKGSPDTEFKSGAGTELSVRAKPS
notes: engineered SIRP-α D1 domain
With B11, the Kd in experiment [1] turned out to be 2.4 nM.

B12: SIRP-α D1 variant polypeptide of SEQ ID NO: 67 (receptor)
chain: EEELQVIQPDKSVSVAAGESAILHCTITSLFPVGPIQWFRGAGPARELIYNQREGPFPRVTTVSETTKRENMDFSISISNITPADAGTYYCVKFRKGSPDTEFKSGAGTELSVRAKPS
notes: engineered SIRP-α D1 domain
In experiment [1], B12 yielded a dissociation constant Kd of 0.206 nM.

B13: SIRP-α D1 variant fused to Fc variant, SEQ ID NO: 101 (Fc fusion)
chain: EEELQVIQPDKSVLVAAGETATLRCTITSLFPVGPIQWFRGAGPGRELIYNQREGPFPRVTTVSDLTKRNNMDFSIRIGAITPADAGTYYCVKFRKGSPDDVEFKSGAGTELSVRAKPSDKTHTCPPCPAPEAAGAPSVFLFPPKPKDTLMISRTPEVTCVVVDVSHEDPEVKFNWYVDGVEVHNAKTKPREEQYASTYRVVSVLTVLHQDWLNGKEYKCKVSNKALPAPIEKTISKAKGQPREPQVYTLPPSREEMTKNQVSLTCLVKGFYPSDIAVEWESNGQPENNYKTTPPVLDSDGSFFLYSKLTVDKSRWQQGNVFSCSVMHEALHNHYTQKSLSLSPGK
For B13, the Kd in experiment [2] was determined as 0.89 nM.

B14: SIRP-α D1 variant fused to Fc variant, SEQ ID NO: 102 (Fc fusion)
chain: EEELQIIQPDKSVLVAAGETATLRCTITSLFPVGPIQWFRGAGPGRELIYNQREGPFPRVTTVSDLTKRNNMDFSIRIGAITPADAGTYYCVKFRKGSPDDVEFKSGAGTELSVRAKPSDKTHTCPPCPAPEAAGAPSVFLFPPKPKDTLMISRTPEVTCVVVDVSHEDPEVKFNWYVDGVEVHNAKTKPREEQYASTYRVVSVLTVLHQDWLNGKEYKCKVSNKALPAPIEKTISKAKGQPREPQVYTLPPSREEMTKNQVSLTCLVKGFYPSDIAVEWESNGQPENNYKTTPPVLDSDGSFFLYSKLTVDKSRWQQGNVFSCSVMHEALHNHYTQKSLSLSPGK
B14: in experiment [2], the Kd was determined as 0.379 nM.

B15: SIRP-α D1 variant fused to Fc variant, SEQ ID NO: 99 (Fc fusion)
chain: EEELQVIQPDKSVLVAAGETATLRCTATSLFPVGPIQWFRGAGPGRELIYNQRQGPFPRVTTVSDLTKRNNMDFSIRIGAITPADAGTYYCVKFRKGSPDDVEFKSGAGTELSVRAKPSDKTHTCPPCPAPEAAGAPSVFLFPPKPKDTLMISRTPEVTCVVVDVSHEDPEVKFNWYVDGVEVHNAKTKPREEQYASTYRVVSVLTVLHQDWLNGKEYKCKVSNKALPAPIEKTISKAKGQPREPQVYTLPPSREEMTKNQVSLTCLVKGFYPSDIAVEWESNGQPENNYKTTPPVLDSDGSFFLYSKLTVDKSRWQQGNVFSCSVMHEALHNHYTQKSLSLSPGK
B15: the Kd in experiment [2] turned out to be 0.895 nM.

B16: SIRP-α D1 variant fused to Fc variant, SEQ ID NO: 110 (Fc fusion)
chain: EEELQVIQPDKSVLVAAGETATLRCTITSLFPVGPIQWFRGAGPGRELIYNQREGPFPRVTTVSDLTKRNNMDFSIRIGAITPADAGTYYCVKFRKGSPDDVEFKSGAGTELSVRAKPSVECPPCPAPPVAGPSVFLFPPKPKDTLMISRTPEVTCVVVDVSHEDPEVQFNWYVDGVEVHNAKTKPREEQFASTFRVVSVLTVVHQDWLNGKEYKCKVSNKGLPSSIEKTISKTKGQPREPQVYTLPPSREEMTKNQVSLTCLVKGFYPSDIAVEWESNGQPENNYKTTPPMLDSDGSFFLYSKLTVDKSRWQQGNVFSCSVMHEALHNHYTQKSLSLSPGK
For B16, the affinity in experiment [2], expressed as Kd, was 0.653 nM.

B17: SIRP-α D1 variant fused to Fc variant, SEQ ID NO: 111 (Fc fusion)
chain: EEELQIIQPDKSVLVAAGETATLRCTITSLFPVGPIQWFRGAGPGRELIYNQREGPFPRVTTVSDLTKRNNMDFSIRIGAITPADAGTYYCVKFRKGSPDDVEFKSGAGTELSVRAKPSVECPPCPAPPVAGPSVFLFPPKPKDTLMISRTPEVTCVVVDVSHEDPEVQFNWYVDGVEVHNAKTKPREEQFASTFRVVSVLTVVHQDWLNGKEYKCKVSNKGLPSSIEKTISKTKGQPREPQVYTLPPSREEMTKNQVSLTCLVKGFYPSDIAVEWESNGQPENNYKTTPPMLDSDGSFFLYSKLTVDKSRWQQGNVFSCSVMHEALHNHYTQKSLSLSPGK
Take B17: binding in experiment [2] was put at a Kd of 0.315 nM.

B18: SIRP-α D1 variant fused to Fc variant, SEQ ID NO: 106 (Fc fusion)
chain: EEELQVIQPDKSVLVAAGETATLRCTATSLFPVGPIQWFRGAGPGRELIYNQRQGPFPRVTTVSDLTKRNNMDFSIRIGNITPADAGTYYCVKFRKGSPDDVEFKSGAGTELSVRAKPSVECPPCPAPPVAGPSVFLFPPKPKDTLMISRTPEVTCVVVDVSHEDPEVQFNWYVDGVEVHNAKTKPREEQFASTFRVVSVLTVVHQDWLNGKEYKCKVSNKGLPSSIEKTISKTKGQPREPQVYTLPPSREEMTKNQVSLTCLVKGFYPSDIAVEWESNGQPENNYKTTPPMLDSDGSFFLYSKLTVDKSRWQQGNVFSCSVMHEALHNHYTQKSLSLSPGK
With B18, the dissociation constant (Kd) in experiment [2] was 0.811 nM.

B19: SIRP-α D1 variant fused to Fc variant, SEQ ID NO: 109 (Fc fusion)
chain: EEELQVIQPDKSVLVAAGETATLRCTATSLFPVGPIQWFRGAGPGRELIYNQREGPFPRVTTVSDLTKRNNMDFSIRIGAITPADAGTYYCVKFRKGSPDDVEFKSGAGTELSVRAKPSVECPPCPAPPVAGPSVFLFPPKPKDTLMISRTPEVTCVVVDVSHEDPEVQFNWYVDGVEVHNAKTKPREEQFASTFRVVSVLTVVHQDWLNGKEYKCKVSNKGLPSSIEKTISKTKGQPREPQVYTLPPSREEMTKNQVSLTCLVKGFYPSDIAVEWESNGQPENNYKTTPPMLDSDGSFFLYSKLTVDKSRWQQGNVFSCSVMHEALHNHYTQKSLSLSPGK
B19: the Kd in experiment [2] amounted to 2.15 nM.

B20: SIRP-α D1 variant fused to Fc variant, SEQ ID NO: 108 (Fc fusion)
chain: EEELQVIQPDKSVLVAAGETATLRCTATSLFPVGPIQWFRGAGPGRELIYNQRQGPFPRVTTVSDLTKRNNMDFSIRIGAITPADAGTYYCVKFRKGSPDDVEFKSGAGTELSVRAKPSVECPPCPAPPVAGPSVFLFPPKPKDTLMISRTPEVTCVVVDVSHEDPEVQFNWYVDGVEVHNAKTKPREEQFASTFRVVSVLTVVHQDWLNGKEYKCKVSNKGLPSSIEKTISKTKGQPREPQVYTLPPSREEMTKNQVSLTCLVKGFYPSDIAVEWESNGQPENNYKTTPPMLDSDGSFFLYSKLTVDKSRWQQGNVFSCSVMHEALHNHYTQKSLSLSPGK
B20: the Kd in experiment [2] amounted to 0.478 nM.
